Assays:
[1] = molecular target: mouse BAD (murine BAD pro-apoptotic polypeptide) (mouse) (UniProt Q61337); experiment: cell-based or functional assay
[2] = molecular target: T1, mouse BAD (murine BAD pro-apoptotic polypeptide)
T1 chain: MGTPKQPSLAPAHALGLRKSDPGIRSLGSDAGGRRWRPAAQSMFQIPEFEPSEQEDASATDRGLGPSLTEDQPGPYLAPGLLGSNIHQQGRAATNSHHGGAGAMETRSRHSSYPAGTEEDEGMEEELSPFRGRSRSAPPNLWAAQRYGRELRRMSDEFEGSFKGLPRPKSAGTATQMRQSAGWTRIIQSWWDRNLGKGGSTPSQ

[3] = molecular target: T2, HSV-1 UL34 protein, P10218
T2 chain: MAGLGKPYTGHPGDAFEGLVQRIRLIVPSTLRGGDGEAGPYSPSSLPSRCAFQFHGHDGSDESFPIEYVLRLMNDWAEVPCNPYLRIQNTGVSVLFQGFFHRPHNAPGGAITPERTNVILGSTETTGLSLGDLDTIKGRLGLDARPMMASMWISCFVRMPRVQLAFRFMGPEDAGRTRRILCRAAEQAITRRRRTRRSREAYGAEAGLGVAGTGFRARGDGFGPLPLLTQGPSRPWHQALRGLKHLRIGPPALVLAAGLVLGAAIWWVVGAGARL

Row | Molecule | DEVDase activity (fold increase over mock-infected cells) (fold increase) [1] | DNA fragmentation (agarose gel) [2] | cleavage of poly(ADP-ribose) polymerase (Mr 85,000 PARP cleavage product, immunoblot) [2] | electrophoretic mobility and total amount of BAD (immunoblot with anti-BAD antibody) [2] | levels of BAD phosphorylated at ser136, ser155 and ser112 (immunoblot with phospho-specific antibodies) [2] | processing of UL34 protein (apparent Mr 30,000 against 33,000; 32P labelling and UL34 immunoblot) [3]
1 | herpes simplex virus 1 (HSV-1) US3 protein kinase (from UniProt P04413 1-481) (enzyme) | < 2 | – | – | – | – | –
2 | herpes simplex virus 1 (HSV-1) US3 protein kinase (protein) MACRKFCRVYGGQGRRKEEAVPPETKPSRVFPHGPFYTPAEDACLDSPPPETPKPSHTTPPSEAERLCHLQEILAQMYGNQDYPIEDDPSADAADDVDEDAPDDVAYPEEYAEELFLPGDATGPLIGANDHIPPPCGASPPGIRRRSRDEIGATGFTAEELDAMDREAARAISRGGKPPSTMAKLVTGMGFTIHGALTPGSEGCVFDSSHPDYPQRVIVKAGWYTSTSHEARLLRRLDHPAILPLLDLHVVSGVTCLVLPKYQADLYTYLSRRLNPLGRPQIAAVSRQLLSAVDYIHRQGIIHRDIKTENIFINTPEDICLGDFGAACFVQGSRSSPFPYGIAGTIDTNAPEVLAGDPYTTTVDIWSAGLVIFETAVHNASLFSAPRGPKRGPCDSQITRIIRQAQVHVDEFSPHPESRLTSRYRSRAAGNNRPPYTRPAWTRYYKMDIDVEYLVCKALTFDGALRPSAAELLCLPLFQQK | – | DNA fragmentation was not observed in extracts of Bac-Bad treated cells that had been previously exposed to Bac-US3 | readily detected in mock- or in Bac-WT-infected cells that had been exposed to Bac-Bad, but not in Bac-US3 infected cells that had been exposed to Bac-Bad | migrated more slowly and was significantly reduced in amount relative to those detected in lysates of cells exposed to BAC-WT or mock-infected prior to exposure to Bac-BAD | The levels of BAD phosphorylated at ser136, ser155, and ser112 present in cells mock infected were similar to those present in cells infected with Bac-WT or Bac-US3 | the fully processed UL34 protein was present in cells infected with HSV-1(F) but not cells infected with 120FR or R7041
